Literature values in publication PMC8895726.
pKd: −log10 of the molar value.

Target: LAG-3:Fc (Mus musculus) (UniProt Q61790)
Experiment: BLI

Chain of UniProt Q61790 (Q61790 24-442): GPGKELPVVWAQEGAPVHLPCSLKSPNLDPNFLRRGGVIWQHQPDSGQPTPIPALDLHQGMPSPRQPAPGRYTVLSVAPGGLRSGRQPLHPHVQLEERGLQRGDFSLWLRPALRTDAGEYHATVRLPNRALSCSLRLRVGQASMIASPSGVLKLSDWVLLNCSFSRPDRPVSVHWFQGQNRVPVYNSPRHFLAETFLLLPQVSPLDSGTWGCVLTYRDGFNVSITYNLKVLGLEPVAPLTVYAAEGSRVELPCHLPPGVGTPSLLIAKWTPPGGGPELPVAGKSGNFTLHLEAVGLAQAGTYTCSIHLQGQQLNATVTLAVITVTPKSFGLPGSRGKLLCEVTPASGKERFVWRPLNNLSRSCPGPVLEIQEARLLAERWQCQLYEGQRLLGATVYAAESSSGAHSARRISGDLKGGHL

In the case of FGL1 (from UniProt Q71KU9), the pKd is given as 8.82.
